What all share (settings): remark: other sources report otherwise
The target of assay [1] is T1, endogenous 14-3-3ζ (YWHAZ) in A549 cells (human (endogenous in A549)), P63104.
T1 chain: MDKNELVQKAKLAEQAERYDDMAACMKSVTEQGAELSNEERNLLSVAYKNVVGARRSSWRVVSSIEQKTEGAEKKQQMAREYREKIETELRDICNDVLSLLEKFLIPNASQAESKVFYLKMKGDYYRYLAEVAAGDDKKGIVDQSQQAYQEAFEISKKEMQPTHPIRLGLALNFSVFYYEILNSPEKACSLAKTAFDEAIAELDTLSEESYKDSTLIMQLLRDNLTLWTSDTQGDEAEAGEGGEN
Nature of the assay: cross-linking.

Assay [2] concerns the target T1, endogenous 14-3-3ζ (YWHAZ) in A549 …. Nature of the assay: native gel or EMSA. Background: In EMSA bound probe runs differently from free probe, usually more slowly.
For assay [3], the target named is T2, purified recombinant 14-3-3ζ, P63104.
T2 chain: T1 chain
Kind of assay: cross-linking.

As a reminder, the stoichiometry N is the number of molecules, sites or subunits per partner or assembly.

B1: endogenous 14-3-3ζ (YWHAZ) in A549 cells, P63104 1-245 (natural protein)
chain: T1 chain
B1: the stoichiometry N in assay [1] and in assay [2] was 2 in each case.

B2: purified recombinant 14-3-3ζ, P63104 1-245 (natural protein)
chain: T1 chain
As to B2, in assay [3], the stoichiometry N was found to be 2.

The values above are taken from PMC12381585.
